Assay results published in publication PMC4822319, “Quaternary structure of a G-protein-coupled receptor heterotetramer in complex with Gi and Gs” (BMC Biology, 2016).

B1: adenosine A2A receptor fused to mCherry (A2AR-mCherry) (receptor, human, UniProt P29274 1-412, looked up)
chain: MPIMGSSVYITVELAIAVLAILGNVLVCWAVWLNSNLQNVTNYFVVSLAAADIAVGVLAIPFAITISTGFCAACHGCLFIACFVLVLTQSSIFSLLAIAIDRYIAIRIPLRYNGLVTGTRAKGIIAICWVLSFAIGLTPMLGWNNCGQPKEGKNHSQGCGEGQVACLFEDVVPMNYMVYFNFFACVLVPLLLMLGVYLRIFLAARRQLKQMESQPLPGERARSTLQKEVHAAKSLAIIVGLFALCWLPLHIINCFTFFCPDCSHAPLWLMYLAIVLSHTNSVVNPFIYAYRIREFRQTFRKIIRSHVLRQQEPFKAAGTSARVLAAHGSDGEQVSLRLNGHPPGVWANGSAPHPERRPNGYALGLVSGGSAQESQGNTGLPDVELLSHELKGVCPEPPGLDDPLAQDGAGVS
notes: adenosine A2A receptor, human, UniProt P29274; The construct for single-particle tracking is not described in the main text; details may stand in Additional file 11 (Supplementary methods); also called A2A-mCherry; A2A-Cherry; source: HEK-293T, transiently transfected, on living cells; not shown: mCherry, C-terminal, kept

Columns and labels:
[1] = target: adenosine A1 receptor fused to a hemi-Rluc8 (A1R-nRluc8) or to a hemi-Venus (A1R-nVenus) (human) (UniProt P30542)
adenosine A1 receptor fused to a hemi-Rluc8 (A1R-nRluc8) or to a hemi-Venus (A1R-nVenus) (human), sequence (P30542 whole entry, the tested form may be a part): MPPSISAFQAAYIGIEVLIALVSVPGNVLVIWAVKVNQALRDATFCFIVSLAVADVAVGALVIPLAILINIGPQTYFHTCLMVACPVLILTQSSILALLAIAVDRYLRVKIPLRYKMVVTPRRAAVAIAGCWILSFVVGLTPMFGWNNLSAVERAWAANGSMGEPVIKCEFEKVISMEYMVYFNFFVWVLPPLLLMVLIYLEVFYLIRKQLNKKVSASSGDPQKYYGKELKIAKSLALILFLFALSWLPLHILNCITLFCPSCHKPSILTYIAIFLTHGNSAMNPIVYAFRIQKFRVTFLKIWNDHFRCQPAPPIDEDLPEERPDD

[2] = target: the molecule itself; assay: single-particle tracking and brightness analysis (TIRFM); living HEK-293T cells expressing A1R-GFP alone or A2AR-mCherry alone; number of receptors in a particle from the brightness distribution of the individual particles

Molecule | decrease of BRETmax of the complementation BRET (A1R and A2AR fused to hemi-Rluc8 and hemi-Venus, the heterotetramer) after pertussis toxin (10 ng/ml, 16 h); endogenous Gi [1] | stoichiometry N [2]
α-subunit of Gi fused to Rluc (Gi-Rluc) (from UniProt P63096 1-354) (natural protein) | 35% | –
B1 | – | 3
